Consider 18 sequences from a protein production outcome set (Wang et al. 2014).

The nature of this data set: label from the status in PepcDB records.
For “MNKETVLYVVIALLVGILGTVLVVGVVNKQKPAPATAGIPAGGGSPVDYQQRIAEAEKVVANDPKNLQAWIQLGNDYFDTDQAQKAINAYGKALELDPTNANVLTDQGIMFKRVGWFDKAIANFEKAQQLDPKHLQSLYNLGVVYMSDLKQPAKAVKYWERYLELDPMGPNSQQIRTMLEEAKGMAQTPSPQGQLFRK”, the protein production result is recorded as “failed”. The value for “MNKGILIVLLAGLVSACTHKEKNPLDSLPDMSAVRANLAFTCVHEADHLPPLDPEADQLFQYGRYLQKKEGPKNFNEVARYYRIAAAYGHYKANSNLQGLVSQGIADSPDAPKETIDLAAQLVNQGIPGGYYDIGHYLELGYGLKQDPEMALRYIRKAADLGNPDAQFYVAEKLAPIDNAPAIARQMWQCATDQGHGRAALTLGVDLKTDKLYPDAAKAFQQGAKSGSSTAALSLRDAFHNPSQSDQLNYLAVPHDPERSRRYGLIWKFLKDNDGRSPKVPDIDKIVPLPPAKLPPWDGTFQWEKDQAAAVPPQKPSDELIERLSKAKHLDPATGLPLAKPEQVAQMETEAAPPPARLPLGTIARTGDSCPQDGVWCVSLAKGMVADAEQSFLKGMELPSLTIYQPRRFAWMDNWMGVRQQTVPVAWKLVGYIHEA” was “failed”; that for “MNKHLKIQIMNIHSEREIYSARVLNAPIEIVYEAFANPSYLKNWWGPKGFTNTIHAFDLQPGGKWILTMHGPEKGNYENSSIFKIVEPQKLISWERKSKPLFDMEVEFKKLNNLQTEISFRMTFSTKEDCDKIRSFVEPQNEELRSIRKRNSEHKLIPTCIPRHPHWLVFQSRQ” was “failed”; that for “MNKIQVLDPVTIDKIAAGEVIERPASVVKELVENAIDAGATAIVTEIEEGGISMIRIADNGCGMDASDVPNAFLRHSTSKIRTVEDLVHIGSLGFRGEALSSIAAVSQVEMITKTKDQVLGTRYRIAGGKEEELDETGARDGTTFLIRQLFYNTPARRKFLKTPMTEASHVGDLLTRMALSHPEISFQFINNGQSKLHTSGNGNLKDVIYHVYGREIAANLLAADYESPGLKIRGFLGKPLISRGNRNFENYFINGRYVKSSIISKAIEDAYKDFTMQHKYPFVVLHIEIDGEHVDVNVHPTKMELRFNNQQEVYNSIYAAVDHGLHAEELIPHVEVDAPKAAAPMKQEGGAPHAAQKKDNPVVPDRTTSVQPAPSAKKSVPAPEERTLDYFMQKMKERVAAYHAQQNQEAPKKAPDVKVSAQPSEDRREAPSDRVCETPEYAAQQLNLFEENLVERKVQAEYKIIGQVFETYWLVEFNDSLYIIDQHAAHERVLYEKTLKSMKTREFTSQFISPPIVLDLSMQEAELLNQYMDQFTRIGFEIEEFGQESYAVRAVPGNLFGIAKKDLLLQMLDGLSDEVSRNLSPDMIDEKVASMSCKAAVKGNMKLSATEVDSLIGELLTLENPYHCPHGRPTIIAMTKRELEKKFKRIV” was “failed”. The value for “MNKKKDILVIGFALFSIFFGAGNLIFPPYIGLTSGGEWLISFLGFIISDVGIIFLSIVAVSKAGSFQGVVGRAGKKFGITLEILMMLCLGPILVVPRTAATTFEMSISPLLGNVNPYVFSVIFFLIVFVLTIKPNKVMDIIGKVLTPLLLISLAVLIIKGIINPIGDLENVNSGKLFMTGITQGYQTMDALGTGGIVALVMASFASKGYKDKKENRMLTIKSALIACIGLAIVYGGLTFLGATSSTLYDSSISQTTLLMNITNAILGSTGTIMLAIVIGLACLTTAVGLTSVTAKYFEDVSNKKLKYKYIVIAICVFSALSSNLGVDKIIEIAVPILSLIYPVSILLVVMSIFEKFVPNNVVVKGATYATLLISLLTVIDSLGIKFEFVHKLPLANLGFNWVVPAIVGGLIAGLVFRKREVVSLEESY” was “failed”; that for “MNKLKYYCLRYQPYLLGVAFFLAIFLVWAIGRAFGFASLHSLLAGIGVFLLLSAGYVLLLYRGVGQHHNLEGLLRDDADQAVLSAAPADREEVSLLRERLLQGIERLHSNKPRGTSNKDALYALPWYLVIGQPAAGKSTMILQSGLNFPYAEREGVRVAGLGGTRNCDWFFSSEAVLLDTAGRYMNSPEEAGKWRGFLQLLRQHRQRRPLNGLIVSVSIADILHGSVEDQERVAKRLRERIQESCALLEVRLPIYLVFTKCDLIPGFTAFYRQLDDAARGEVMGKTFSHKGYEQADWGQRFSNAMDELTRYWGQMASQQLVQQDIQVTRRNDAAYRFPLELAALKPRLHQFVDSLLRANPYQNAEMLRGFYFTAALQADEAQWGCHGQHVAERFALEHAEGTGTAGSQPAPLFINSLFRKVIIPDQHLVALYTSNHRERRRKAGWVGAAGLAALVLCSLWGWSYLNNRATLASIADELAQAKADDQAASGQYTAWRSLDRLRFWAAHYHEQHHAKGVPLGMRLGLYQGHEVEPLLRDRYFATLQNVMLKPTADNLTRTLYLLTTLKVYQRNTRELQPVSGIDSVEAEALPHDNRAQSIANFGKAALDTYVMLSPGQREHADPAFLKAHLPDYWYPAIARQTGKSMAAAGSEAGGNQDYLYASRQITFYSDQIREPDVPRILDNAFLMSSSRNYIDSLRAQSLRAIETITLESDTLFAFGRADFQSLKNEGQHQLSAIASKLLNTPNIGKIIISGHADQLGDSQGNLQVSKQRAQTIRTYLVGKGVPAELVVAQGEGSRKPLVNCDMQQPRTQLIKCLEPNRRVEIEVRGLN” was “failed”; that for “MNKLYIGNLSPAVTADDLRQLFGDRKLPLAGQVLLKSGYAFVDYPDQNWAIRAIETLSGKVELHGKIMEVDYSVSKKLRS” was “not failed”. The value for “MNKMLYGWLLAACCGLPPAFAGDSVDVLAQPALHGPQALRAVLQDVARADARLVAVGERGVVLLSDDNGATWRQATAVPVGVSLTAVQFIDARNGWAVGHAGVVLHSQDGGEHWSVQLDGKRAAALEVQAAEAAADERRLAAAQRLLADGADKPLLALNFTDARNGLVVGAYGVAMRTDDGGRSWQSEIGRLPNGRGLHLYALARQGNQVYIAGEQGLLLRSRDGGEHYEALHGPYDGSYFAATVLPDGRLLLGGLRGSLFASDDGGDSFQALANPTPASINGLRVAGGQLLLANQAGMLLRSGLGAFAAQPVAVSDGLPLTAATTAADGSIVAVGMAGARRLEPSSLEHHHHHH” was “failed”. For the sequence “MNKMNNNILKKNDLSSQEESTHEIQDVLDQLDFYTYKIALFLDIDGTLADFKIDPLACFISKKILKSIQDIQSKGCLVSVITGRDYNSAQKLLADVSLPIAALHGLDIHINEKTQLNAINQNNQIFIQNFLCRLKEEIKYQPDLSIENKHHSIALHYRKNPDLYDIAKHIMNTVKKDNDEFKVIEGKYVFELIPKNSNKGSAIKTLLSYFDAEHYLSIFIGDDITDEDGFNMVNQLEGISIKVGSGKTVARFRLKNIEHVEEFLNLLSHHFPDSSTQITKKYGEQHV”, the protein production result is “failed”.

Consider “MNKNLNTFTSMRNDRQLHLYLAWGCPFCHRILASLAITKLDDNISITWMENIKGEAGWKMYFIEDPLFNSDSLKAVYQQLEPTVEHRYSVPLLVDKKNNLLLSTSSPEIVRYVAKGFDDAFSVAYDLIPNKLIKDIDEMNQWLHDKINRAVYLVGFATQQSDYEYKLYELFKALDELEERLKKQLFLFGNQLTESDLYLLATLERFDNIYFCLFKCSLKRIADYPALFRYHNQLRGMESLASTYQPVLTKEHYFMSTMHVLGEARELNPSKIIPIDYYP”, for which the protein production entry is “failed”. The value for “MNKQNKQNKFSPEVRERSVRLVQEHRGEYPSLWAAVESIAPKIGCVPSTLLEWVKRSEINNGAREGLTSSERDRLKALERENRELRRANEILKTASAFFAQAELDRVLKKLEHHHHHH” was “not failed”; that for “MNKRAREWVSVGITWVQDVIYVALGILLTLACAVLLLHGGVNLVGALGRDLDLQVIVQLLDRILLAMMIVELLYTVKVSFRDHLLVPEPFLLVALIAAIRRILVITAEFGAQAPSGDEQFRHVMSELGLLTVLILVLVGSVVILRRRDSAEAPR” was “failed”. For “MNKRRNHKTNKAKDSLSDEETKHDVLAQEVEGGDSSSDEDDVNIVLEPSSTYYGGDTSTGDSKGLFVGGTTTRHWQRPGYSSTAEGGIVGSGVSAYSRGGVDLSLVPKPPTDFPGAHVDYSVFENEIDSLEEKPWREKGAELSDYFNYGFTEDTWREYCRRQQMMRLYSQSLMPIRTLDSGGPLHNIDSPNEPSRKVPRGQQNRRLTPAYSTLRNNFDSKFYSDGNESFSSDYVRYSRPEQTDGDDVILTLTKPTSVDES”, the protein production result was “failed”. On to “MNKSTCLMAAETPSKRWRLHCLAFSQRFVRAGPACSSREACSSPRAGWNPAGFRLPGRWSPFVALHLVCQIREALKLRSGHRTPSGAGSSMQPPPSLCGRALVALVLACGLSRIWGEERGFPPDRATPLLQTAEIMTPPTKTLWPKGSNASLARSLAPAEVPKGDRTAGSPPRTISPPPCQGPIEIKETFKYINTVVSCLVFVLGIIGNSTLLRIIYKNKCMRNGPNILIASLALGDLLHIVIDIPINVYKLLAEDWPFGAEMCKLVPFIQKASVGITVLSLCALSIDRYRAVASWSRIKGIGVPKWTAVEIVLIWVVSVVLAVPEAIGFDIITMDYKGSYLRICLLHPVQKTAFMQFYKTAKDWWLFSFYFCLPLAITAFFYTLMTCEMLRKKSGMQIALNDHLKQRREVAKTVFCLVLVFALCWLPLHLSRILKLTLYNQNDPNRCELLSFLLVLDYIGINMASLNSCINPIALYLVSKRFKNCFKSCLCCWCQSFEEKQSLEEKQSCLKFKANDHGYDNFRSSNKYSSS”, for which the protein production result is given as “failed”. Take “MNKVQSIDPLIADKFNNELRSYNLEYKLEQESLNKEIDEALKNYASKNGGLGGNRPDVKLLLNTQDPNRRVPILIEYKGLKDKLIKLDKNKLVENFKNHEPHYKNIREYALNGALHYANAILHHTSYTECIAIGITGYKDNKGGICSQIAVYYVNKSNLGMGIDVSKGEQGYSDLSFLSRKHFNDFIKRVDTLSLSDEDLERIREKKNQEIEDCLMRLNNNIYNKEKNFLSEHNRVYLVIASIIANLGIPNLVTPLNKEDLKSSDEVHQRDGDIMLRKIQSFLENKDLSPEKRQSIISSLETLLRNENNNKATNGESCLKRCFSEIVDSLGIYYKIGLSTDFTGKLFNEMYRWLGFTKDQLNDVVLTPPYVATLLARLSKVNKDSFVWDFATGSAGLLVASMNLMIEDAKKRITSPEELEQKIAHIKAKQLLGIEILSDIHTLAVLNMILMGDGSSQILNQDGLSGFDGKVNNEAFKANAFVLNPPYSASGNGMVFVEQALEKMQSGYASVIIQSSAGSGKAKEYNVRILEKHTLLASIKMPLDLFIGKSSVQTHIYVFRVNEKHDAKQRVKFINFSNDGYARANRKKAKASHNLKDTHNAKERYNEVVDLVHIGQSCLKFLSEDDYYENTIDPKNGSDWNQNKPTDTKPELEDFKRTIADYLSYEVSLILKNQMPPKR”: the protein production entry is “failed”. “MNKWLDLILKIHVHPFLWIIAALGLLTGHMKALLCLLLIVLIHELGHAALAVFFSWRIKRVFLLPFGGTVEVEEHGNRPLKEEFAVIIAGPLQHIWLQFAAWMLAEVSVIHQHTFELFTFYNLSILFVNLLPIWPLDGGKLLFLLFSKQLPFQKAHRLNLKTSLCFCLLLGCWVLFVIPLQISAWVLFVFLAVSLFEEYRQRHYIHVRFLLERYYGKNRELEKLLPLTVKAEDKVYHVMAEFKRGCKHPIIIEKSGQKLSQLDENEVLHAYFADKRTNSSMEELLLPY”: the protein production result is on record as “failed”. The value for “MNLEKHASPDSVIVIDDLLPQHMDYASRQRNTTIWTGDVYRLVPILRHYRPDLDIRVYDVDMKGFGLVTRLDPSSDVLAGNYGAIEADILAGKWSFPTAAAIRDHMQPRATDLLANDLGIIAARRTAKASKQSDRRAAPALPQRRPRLSVIICAYDMAREAPRTILSATAPYQKGLKEDEYEVIVVDNGSSTPLTYDNLPPNAQIVRAPDPRQSPVFALNWAAREIAKGEILLFAIDGARIFSERLIDETVKAHDRMEDAFVFSLSWHIGPKVQMQSVPEGYGAEIEDGLIRAVRWPDESDGLFGISVLAGSSSNGFFGDITESNSFSISRTLFDRHGGFDERFTSPGGGLANLEIFRRYVTRPDARNVCLLSEGTFHQVHDSVATSGKNRWEAFASEYEAIFGGPYLRPSYHCFYQGKPRAGMVPFILQSLQG” was “failed”. On to “MNLHQTVEHEAAAAFAAAGIAGSPVVLQPTKNAEHGDFQINGVMGAAKKAKQNPRELAQKVADALAGNAVIESAEVAGPGFINLRLRHEFLAQNIHAALNDARF”, for which the protein production entry is “not failed”.
